In patent US20150274802A1:
“And” between values parts separate entries of the source, which are not always exact repeats. Identical values can stand only once.

Legend:
[1] = molecular target: human insulin receptor (human) (UniProt P06213); test: competition SPA, [125I]insulin
[2] = molecular target: human IGF-1 receptor (human) (UniProt P08069); test: competition SPA, [125I]IGF-1
[3] = molecular target: human IGF-1 receptor (human) (UniProt P08069); test: cell-based or functional assay
type A insulin receptor = type A insulin receptor (UniProt P06213); test: cell-based or functional assay
type B insulin receptor = type B insulin receptor (UniProt P06213); test: cell-based or functional assay

| % insulin (in test) [1] | % native insulin activity (0.6 nM) [1] | IC50 [1] | % IGF-1 (in test) [2] [%] | % native IGF-1 activity (0.55 nM) [2] [%] | % Insulin Activity (in vitro, assay not named) [3] [%] | % Insulin Activity (in vitro, assay not named) (type A insulin receptor) [%] | % Insulin Activity (in vitro, assay not named) (type B insulin receptor) [%] | Substance |
| --- | --- | --- | --- | --- | --- | --- | --- | --- |
| 11.3% and 20.1% | 22.5% and 24.2% | 2.67 nM and 2.48 nM | 0.9 | 0.9 |  |  |  | IGF-1 A:In (1-17)-IGF-1 B(18-30) (from UniProt P05019 18-30) (ligand) |
|  |  |  |  |  | < 0.1 | 0.4 | 0.1 | MIU-68: B2, B22-PEG10K di-PEGylated MIU-35 (ligand) |
|  |  |  |  |  | < 0.1 | 0.2 | 0.1 | MIU-67: B2, C8-PEG10K di-PEGylated MIU-35 (ligand) |
|  |  |  |  |  | < 0.1 | 1 | 0.5 | MIU-69: B2, A14-PEG10K di-PEGylated MIU-35 (ligand) |
